Assay results as given in PMC4384728 (The Journal of Cell Biology, 2015).

How the values were obtained:
HA-VEGFR3-TMD = target: T1, HA-VEGFR3-TMD; test: pull-down
T1 chain: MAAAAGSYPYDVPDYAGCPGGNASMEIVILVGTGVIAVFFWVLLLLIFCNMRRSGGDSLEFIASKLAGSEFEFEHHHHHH

HA-VEGFR2-TMD = target: T2, HA-VEGFR2-TMD; test: pull-down
T2 chain: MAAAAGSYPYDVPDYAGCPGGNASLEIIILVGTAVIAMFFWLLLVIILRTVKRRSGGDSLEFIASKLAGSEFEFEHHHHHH

B1: Flag-VE-TMD (domain or fragment)
chain: MAAAAGSDYKDDDDKGCPGGNASVSIQAVVAILLCILTITVITLLIFLRRRSGGLNDIFEAQKIEWHESSEFEFEHHHHHH
- binding result (HA-VEGFR3-TMD): binds
- binding result (HA-VEGFR2-TMD): binds
